Measured values taken from patent US20210388087A1 (Chugai, published 2021).

B1: CE115HA000 S62E one-arm antibody (antibody, human IgG1, kappa, L234A L235A, N297A, name in Kabat numbering)
heavy: QVQLVESGGGVVQPGRSLRLSCAASGFTFSNAWMHWVRQAPGKGLEWVAQIKAKSNNYATYYAEEVKGRFTISRDDSKNSLYLQMNSLKTEDTAVYYCRYVHYGAYYGVDAWGQGTTVTVSSASTKGPSVFPLAPSSKSTSGGTAALGCLVKDYFPEPVTVSWNSGALTSGVHTFPAVLQSSGLYSLSSVVTVPSSSLGTQTYICNVNHKPSNTKVDKKVEPKSCDKTHTCPPCPAPEAAGGPSVFLFPPKPKDTLMISRTPEVTCVVVDVSHEDPEVKFNWYVDGVEVHNAKTKPREEQYASTYRVVSVLTVLHQDWLNGKEYKCKVSNKALPAPIEKTISKAKGQPREPQVYTLPPSRCELTKNQVSLSCAVKGFYPSDIAVEWESNGQPENNYKTTPPVLDSDGSFFLVSKLTVDKSRWQQGNVFSCSVMHEALHNHYTQKSLSLSPDYKDDDDK
chain: EPKSSDKTHTCPPCPAPELLGGPSVFLFPPKPKDTLMISRTPEVTCVVVDVSHEDPEVKFNWYVDGVEVHNAKTKPREEQYNSTYRVVSVLTVLHQDWLNGKEYKCKVSNKALPAPIEKTISKAKGQPREPQVCTLPPSRDELTKNQVSLWCLVKGFYPSDIAVEWESNGQPENNYKTTPPVLDSDGSFFLYSKLTVDKSRWQQGNVFSCSVMHEALHNRYTQKSLSLSP
light: DIVMTQSPLSLPVTPGEPASISCRSSQSLVHSNRNTYLHWYQQKPGQAPRLLIYKVSNRFSGVPDRFSGSGSGTDFTLKISRVEAEDVGVYYCGQGTQVPYTFGQGTKLEIKRTVAAPSVFIFPPSDEQLKSGTASVVCLLNNFYPREAKVQWKVDNALQSGNSQESVTEQDSKDSTYSLSSTLTLSKADYEKHKVYACEVTHQGLSSPVTKSFNRGEC
B2: CE115HA000 S62K one-arm antibody (antibody, human IgG1, kappa, L234A L235A, N297A, name in Kabat numbering)
heavy: QVQLVESGGGVVQPGRSLRLSCAASGFTFSNAWMHWVRQAPGKGLEWVAQIKAKSNNYATYYAEKVKGRFTISRDDSKNSLYLQMNSLKTEDTAVYYCRYVHYGAYYGVDAWGQGTTVTVSSASTKGPSVFPLAPSSKSTSGGTAALGCLVKDYFPEPVTVSWNSGALTSGVHTFPAVLQSSGLYSLSSVVTVPSSSLGTQTYICNVNHKPSNTKVDKKVEPKSCDKTHTCPPCPAPEAAGGPSVFLFPPKPKDTLMISRTPEVTCVVVDVSHEDPEVKFNWYVDGVEVHNAKTKPREEQYASTYRVVSVLTVLHQDWLNGKEYKCKVSNKALPAPIEKTISKAKGQPREPQVYTLPPSRCELTKNQVSLSCAVKGFYPSDIAVEWESNGQPENNYKTTPPVLDSDGSFFLVSKLTVDKSRWQQGNVFSCSVMHEALHNHYTQKSLSLSPDYKDDDDK
chain: EPKSSDKTHTCPPCPAPELLGGPSVFLFPPKPKDTLMISRTPEVTCVVVDVSHEDPEVKFNWYVDGVEVHNAKTKPREEQYNSTYRVVSVLTVLHQDWLNGKEYKCKVSNKALPAPIEKTISKAKGQPREPQVCTLPPSRDELTKNQVSLWCLVKGFYPSDIAVEWESNGQPENNYKTTPPVLDSDGSFFLYSKLTVDKSRWQQGNVFSCSVMHEALHNRYTQKSLSLSP
light: DIVMTQSPLSLPVTPGEPASISCRSSQSLVHSNRNTYLHWYQQKPGQAPRLLIYKVSNRFSGVPDRFSGSGSGTDFTLKISRVEAEDVGVYYCGQGTQVPYTFGQGTKLEIKRTVAAPSVFIFPPSDEQLKSGTASVVCLLNNFYPREAKVQWKVDNALQSGNSQESVTEQDSKDSTYSLSSTLTLSKADYEKHKVYACEVTHQGLSSPVTKSFNRGEC
B3: CE115HA000 S77T one-arm antibody (antibody, human IgG1, kappa, L234A L235A, N297A, name in Kabat numbering)
heavy: QVQLVESGGGVVQPGRSLRLSCAASGFTFSNAWMHWVRQAPGKGLEWVAQIKAKSNNYATYYAESVKGRFTISRDDSKNTLYLQMNSLKTEDTAVYYCRYVHYGAYYGVDAWGQGTTVTVSSASTKGPSVFPLAPSSKSTSGGTAALGCLVKDYFPEPVTVSWNSGALTSGVHTFPAVLQSSGLYSLSSVVTVPSSSLGTQTYICNVNHKPSNTKVDKKVEPKSCDKTHTCPPCPAPEAAGGPSVFLFPPKPKDTLMISRTPEVTCVVVDVSHEDPEVKFNWYVDGVEVHNAKTKPREEQYASTYRVVSVLTVLHQDWLNGKEYKCKVSNKALPAPIEKTISKAKGQPREPQVYTLPPSRCELTKNQVSLSCAVKGFYPSDIAVEWESNGQPENNYKTTPPVLDSDGSFFLVSKLTVDKSRWQQGNVFSCSVMHEALHNHYTQKSLSLSPDYKDDDDK
chain: EPKSSDKTHTCPPCPAPELLGGPSVFLFPPKPKDTLMISRTPEVTCVVVDVSHEDPEVKFNWYVDGVEVHNAKTKPREEQYNSTYRVVSVLTVLHQDWLNGKEYKCKVSNKALPAPIEKTISKAKGQPREPQVCTLPPSRDELTKNQVSLWCLVKGFYPSDIAVEWESNGQPENNYKTTPPVLDSDGSFFLYSKLTVDKSRWQQGNVFSCSVMHEALHNRYTQKSLSLSP
light: DIVMTQSPLSLPVTPGEPASISCRSSQSLVHSNRNTYLHWYQQKPGQAPRLLIYKVSNRFSGVPDRFSGSGSGTDFTLKISRVEAEDVGVYYCGQGTQVPYTFGQGTKLEIKRTVAAPSVFIFPPSDEQLKSGTASVVCLLNNFYPREAKVQWKVDNALQSGNSQESVTEQDSKDSTYSLSSTLTLSKADYEKHKVYACEVTHQGLSSPVTKSFNRGEC
B4: CE115HA000 S74A one-arm antibody (antibody, human IgG1, kappa, L234A L235A, N297A, name in Kabat numbering)
heavy: QVQLVESGGGVVQPGRSLRLSCAASGFTFSNAWMHWVRQAPGKGLEWVAQIKAKSNNYATYYAESVKGRFTISRDDAKNSLYLQMNSLKTEDTAVYYCRYVHYGAYYGVDAWGQGTTVTVSSASTKGPSVFPLAPSSKSTSGGTAALGCLVKDYFPEPVTVSWNSGALTSGVHTFPAVLQSSGLYSLSSVVTVPSSSLGTQTYICNVNHKPSNTKVDKKVEPKSCDKTHTCPPCPAPEAAGGPSVFLFPPKPKDTLMISRTPEVTCVVVDVSHEDPEVKFNWYVDGVEVHNAKTKPREEQYASTYRVVSVLTVLHQDWLNGKEYKCKVSNKALPAPIEKTISKAKGQPREPQVYTLPPSRCELTKNQVSLSCAVKGFYPSDIAVEWESNGQPENNYKTTPPVLDSDGSFFLVSKLTVDKSRWQQGNVFSCSVMHEALHNHYTQKSLSLSPDYKDDDDK
chain: EPKSSDKTHTCPPCPAPELLGGPSVFLFPPKPKDTLMISRTPEVTCVVVDVSHEDPEVKFNWYVDGVEVHNAKTKPREEQYNSTYRVVSVLTVLHQDWLNGKEYKCKVSNKALPAPIEKTISKAKGQPREPQVCTLPPSRDELTKNQVSLWCLVKGFYPSDIAVEWESNGQPENNYKTTPPVLDSDGSFFLYSKLTVDKSRWQQGNVFSCSVMHEALHNRYTQKSLSLSP
light: DIVMTQSPLSLPVTPGEPASISCRSSQSLVHSNRNTYLHWYQQKPGQAPRLLIYKVSNRFSGVPDRFSGSGSGTDFTLKISRVEAEDVGVYYCGQGTQVPYTFGQGTKLEIKRTVAAPSVFIFPPSDEQLKSGTASVVCLLNNFYPREAKVQWKVDNALQSGNSQESVTEQDSKDSTYSLSSTLTLSKADYEKHKVYACEVTHQGLSSPVTKSFNRGEC
B5: CE115HA000 S62P one-arm antibody (antibody, human IgG1, kappa, L234A L235A, N297A, name in Kabat numbering)
heavy: QVQLVESGGGVVQPGRSLRLSCAASGFTFSNAWMHWVRQAPGKGLEWVAQIKAKSNNYATYYAEPVKGRFTISRDDSKNSLYLQMNSLKTEDTAVYYCRYVHYGAYYGVDAWGQGTTVTVSSASTKGPSVFPLAPSSKSTSGGTAALGCLVKDYFPEPVTVSWNSGALTSGVHTFPAVLQSSGLYSLSSVVTVPSSSLGTQTYICNVNHKPSNTKVDKKVEPKSCDKTHTCPPCPAPEAAGGPSVFLFPPKPKDTLMISRTPEVTCVVVDVSHEDPEVKFNWYVDGVEVHNAKTKPREEQYASTYRVVSVLTVLHQDWLNGKEYKCKVSNKALPAPIEKTISKAKGQPREPQVYTLPPSRCELTKNQVSLSCAVKGFYPSDIAVEWESNGQPENNYKTTPPVLDSDGSFFLVSKLTVDKSRWQQGNVFSCSVMHEALHNHYTQKSLSLSPDYKDDDDK
chain: EPKSSDKTHTCPPCPAPELLGGPSVFLFPPKPKDTLMISRTPEVTCVVVDVSHEDPEVKFNWYVDGVEVHNAKTKPREEQYNSTYRVVSVLTVLHQDWLNGKEYKCKVSNKALPAPIEKTISKAKGQPREPQVCTLPPSRDELTKNQVSLWCLVKGFYPSDIAVEWESNGQPENNYKTTPPVLDSDGSFFLYSKLTVDKSRWQQGNVFSCSVMHEALHNRYTQKSLSLSP
light: DIVMTQSPLSLPVTPGEPASISCRSSQSLVHSNRNTYLHWYQQKPGQAPRLLIYKVSNRFSGVPDRFSGSGSGTDFTLKISRVEAEDVGVYYCGQGTQVPYTFGQGTKLEIKRTVAAPSVFIFPPSDEQLKSGTASVVCLLNNFYPREAKVQWKVDNALQSGNSQESVTEQDSKDSTYSLSSTLTLSKADYEKHKVYACEVTHQGLSSPVTKSFNRGEC
B6: CE115HA000 S74P one-arm antibody (antibody, human IgG1, kappa, L234A L235A, N297A, name in Kabat numbering)
heavy: QVQLVESGGGVVQPGRSLRLSCAASGFTFSNAWMHWVRQAPGKGLEWVAQIKAKSNNYATYYAESVKGRFTISRDDPKNSLYLQMNSLKTEDTAVYYCRYVHYGAYYGVDAWGQGTTVTVSSASTKGPSVFPLAPSSKSTSGGTAALGCLVKDYFPEPVTVSWNSGALTSGVHTFPAVLQSSGLYSLSSVVTVPSSSLGTQTYICNVNHKPSNTKVDKKVEPKSCDKTHTCPPCPAPEAAGGPSVFLFPPKPKDTLMISRTPEVTCVVVDVSHEDPEVKFNWYVDGVEVHNAKTKPREEQYASTYRVVSVLTVLHQDWLNGKEYKCKVSNKALPAPIEKTISKAKGQPREPQVYTLPPSRCELTKNQVSLSCAVKGFYPSDIAVEWESNGQPENNYKTTPPVLDSDGSFFLVSKLTVDKSRWQQGNVFSCSVMHEALHNHYTQKSLSLSPDYKDDDDK
chain: EPKSSDKTHTCPPCPAPELLGGPSVFLFPPKPKDTLMISRTPEVTCVVVDVSHEDPEVKFNWYVDGVEVHNAKTKPREEQYNSTYRVVSVLTVLHQDWLNGKEYKCKVSNKALPAPIEKTISKAKGQPREPQVCTLPPSRDELTKNQVSLWCLVKGFYPSDIAVEWESNGQPENNYKTTPPVLDSDGSFFLYSKLTVDKSRWQQGNVFSCSVMHEALHNRYTQKSLSLSP
light: DIVMTQSPLSLPVTPGEPASISCRSSQSLVHSNRNTYLHWYQQKPGQAPRLLIYKVSNRFSGVPDRFSGSGSGTDFTLKISRVEAEDVGVYYCGQGTQVPYTFGQGTKLEIKRTVAAPSVFIFPPSDEQLKSGTASVVCLLNNFYPREAKVQWKVDNALQSGNSQESVTEQDSKDSTYSLSSTLTLSKADYEKHKVYACEVTHQGLSSPVTKSFNRGEC

These binders were tested against T1, CD3 epsilon homodimer protein (UniProt P07766 23-126) (assay: SPR (Biacore T200), CD3 epsilon homodimer on CM4 chip, one-arm antibody as analyte, 25 C;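 note: homodimer attached to the sensor surface via amine coupling, HBS-EP+ used as running buffer during binding runs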).
T1 construct: immobilized on Sensor chip CM4 by amine coupling; also called CD3 (CD3 epsilon)
T1 sequence (P07766 23-126): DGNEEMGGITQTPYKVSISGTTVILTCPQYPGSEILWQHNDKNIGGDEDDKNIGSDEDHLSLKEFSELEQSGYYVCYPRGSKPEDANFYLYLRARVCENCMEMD

Which “ratio of amounts bound (altered form / CE115HA000)” value does the source give for B1 here?
Its value is 0.92.

For B2, which “ratio of amounts bound (altered form / CE115HA000)” value is on record?
The value was 1.19.

B3 was tested. Which “ratio of amounts bound (altered form / CE115HA000)” value did it give?
Its value is 0.9.

With B4 as the binder, how does the “ratio of amounts bound (altered form / CE115HA000)” value read?
Its value is 1.05.

B5 was tested. Which “ratio of amounts bound (altered form / CE115HA000)” value did it give?
The value was 1.

Which “ratio of amounts bound (altered form / CE115HA000)” value does the source give for B6 here?
The value was 0.91.
